According to article PMC5587766, “Towards designer organelles by subverting the peroxisomal import pathway” (Nature Communications, 2017):
Where no end group is shown, it is not given here.

T1: wild-type AtPEX5C (Arabidopsis thaliana, UniProt Q9FMA3)
T1 construct: made in house; host or cells: E. coli BL21-Gold (DE3)
T1 sequence (Q9FMA3 340-728): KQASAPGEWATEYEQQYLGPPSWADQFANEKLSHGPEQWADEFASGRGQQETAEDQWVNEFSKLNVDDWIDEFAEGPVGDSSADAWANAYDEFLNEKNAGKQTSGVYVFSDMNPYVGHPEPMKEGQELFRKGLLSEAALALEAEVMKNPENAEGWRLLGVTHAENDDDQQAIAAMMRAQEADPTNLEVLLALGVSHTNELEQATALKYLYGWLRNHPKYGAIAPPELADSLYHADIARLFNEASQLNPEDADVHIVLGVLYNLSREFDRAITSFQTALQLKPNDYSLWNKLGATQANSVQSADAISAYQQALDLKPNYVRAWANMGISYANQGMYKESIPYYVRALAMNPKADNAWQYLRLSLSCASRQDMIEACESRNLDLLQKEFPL

T2: AtPEX5C D505H (Arabidopsis thaliana, UniProt Q9FMA3, D505H)
T2 construct: made in house; host or cells: E. coli BL21-Gold (DE3)
T2 sequence (Q9FMA3 340-728 D505H): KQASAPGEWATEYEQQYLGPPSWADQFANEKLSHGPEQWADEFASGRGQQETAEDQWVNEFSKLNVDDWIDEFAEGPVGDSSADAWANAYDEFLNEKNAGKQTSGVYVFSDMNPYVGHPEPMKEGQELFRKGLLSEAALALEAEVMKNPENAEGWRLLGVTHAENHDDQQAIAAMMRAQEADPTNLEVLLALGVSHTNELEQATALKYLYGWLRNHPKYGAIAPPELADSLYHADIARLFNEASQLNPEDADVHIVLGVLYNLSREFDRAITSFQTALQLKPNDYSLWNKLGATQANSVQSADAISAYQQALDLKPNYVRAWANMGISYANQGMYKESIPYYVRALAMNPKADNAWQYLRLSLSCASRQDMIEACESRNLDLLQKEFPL

T3: AtPEX5C N601A (Arabidopsis thaliana, UniProt Q9FMA3, N601A)
T3 construct: made in house; host or cells: E. coli BL21-Gold (DE3)
T3 sequence (Q9FMA3 340-728 N601A): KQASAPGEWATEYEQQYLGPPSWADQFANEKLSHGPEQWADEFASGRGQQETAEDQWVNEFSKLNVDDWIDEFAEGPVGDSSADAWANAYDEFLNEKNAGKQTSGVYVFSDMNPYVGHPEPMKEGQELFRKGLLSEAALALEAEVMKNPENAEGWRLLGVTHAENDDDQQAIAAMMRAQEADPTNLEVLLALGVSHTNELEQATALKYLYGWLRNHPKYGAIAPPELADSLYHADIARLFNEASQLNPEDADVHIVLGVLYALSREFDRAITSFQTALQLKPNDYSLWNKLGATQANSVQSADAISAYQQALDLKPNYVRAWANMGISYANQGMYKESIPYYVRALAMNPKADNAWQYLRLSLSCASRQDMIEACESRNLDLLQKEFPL

T4: His6-tagged A. thaliana PEX5 PTS1-binding domain (residues 340-728), wild type (Arabidopsis thaliana, UniProt Q9FMA3 340-728)
T4 construct: Written 'His6-AtPEX5 (340-728)', in pET-28b; also called AtPEX5C; wild-type AtPEX5C; source: E. coli BL21-Gold (DE3), purified (Co-NTA)
T4 sequence (looked up): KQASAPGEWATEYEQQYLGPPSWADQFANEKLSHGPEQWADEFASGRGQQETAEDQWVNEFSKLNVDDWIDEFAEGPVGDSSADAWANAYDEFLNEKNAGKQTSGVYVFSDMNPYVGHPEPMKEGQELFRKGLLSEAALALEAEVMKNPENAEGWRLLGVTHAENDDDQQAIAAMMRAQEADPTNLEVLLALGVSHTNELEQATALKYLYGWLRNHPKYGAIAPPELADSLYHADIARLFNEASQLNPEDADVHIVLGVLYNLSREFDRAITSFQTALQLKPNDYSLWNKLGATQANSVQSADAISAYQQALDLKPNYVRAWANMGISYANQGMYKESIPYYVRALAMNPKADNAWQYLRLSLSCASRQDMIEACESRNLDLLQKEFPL

T5: AtPEX5C D505H (Arabidopsis thaliana, UniProt Q9FMA3 340-728, D505H)
T5 construct: Made by site-directed mutagenesis of His6-AtPEX5 (340-728) in pET-28b; also called D505H variant of AtPEX5C; source: E. coli BL21-Gold (DE3), purified (Co-NTA)
T5 sequence (looked up): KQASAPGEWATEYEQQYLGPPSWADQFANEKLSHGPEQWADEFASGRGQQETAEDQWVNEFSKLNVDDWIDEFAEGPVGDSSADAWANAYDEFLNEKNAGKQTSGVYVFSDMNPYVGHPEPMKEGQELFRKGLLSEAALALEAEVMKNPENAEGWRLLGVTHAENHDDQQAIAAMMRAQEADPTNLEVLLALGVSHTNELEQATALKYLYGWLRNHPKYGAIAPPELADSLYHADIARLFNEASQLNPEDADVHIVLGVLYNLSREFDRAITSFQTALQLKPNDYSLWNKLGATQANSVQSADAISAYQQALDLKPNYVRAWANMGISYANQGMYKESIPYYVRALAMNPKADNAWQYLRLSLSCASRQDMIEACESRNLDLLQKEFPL

T6: AtPEX5C N601A (Arabidopsis thaliana, UniProt Q9FMA3 340-728, N601A)
T6 construct: Made by site-directed mutagenesis of His6-AtPEX5 (340-728) in pET-28b; also called N601A variant; source: E. coli BL21-Gold (DE3), purified (Co-NTA)
T6 sequence (looked up): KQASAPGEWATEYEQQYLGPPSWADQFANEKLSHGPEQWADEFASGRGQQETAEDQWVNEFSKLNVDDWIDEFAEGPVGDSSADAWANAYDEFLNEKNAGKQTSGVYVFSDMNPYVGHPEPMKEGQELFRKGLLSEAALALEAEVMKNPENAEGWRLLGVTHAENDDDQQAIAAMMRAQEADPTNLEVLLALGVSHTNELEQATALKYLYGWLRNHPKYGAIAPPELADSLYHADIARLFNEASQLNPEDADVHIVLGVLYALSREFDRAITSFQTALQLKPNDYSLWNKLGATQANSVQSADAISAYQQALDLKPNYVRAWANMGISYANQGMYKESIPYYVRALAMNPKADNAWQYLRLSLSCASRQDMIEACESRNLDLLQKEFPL

T7: AtPEX5C D505H-N601A (Arabidopsis thaliana, UniProt Q9FMA3 340-728, D505H | N601A)
T7 construct: Made by site-directed mutagenesis of His6-AtPEX5 (340-728) in pET-28b; source: E. coli BL21-Gold (DE3), purified (Co-NTA)
T7 sequence (looked up): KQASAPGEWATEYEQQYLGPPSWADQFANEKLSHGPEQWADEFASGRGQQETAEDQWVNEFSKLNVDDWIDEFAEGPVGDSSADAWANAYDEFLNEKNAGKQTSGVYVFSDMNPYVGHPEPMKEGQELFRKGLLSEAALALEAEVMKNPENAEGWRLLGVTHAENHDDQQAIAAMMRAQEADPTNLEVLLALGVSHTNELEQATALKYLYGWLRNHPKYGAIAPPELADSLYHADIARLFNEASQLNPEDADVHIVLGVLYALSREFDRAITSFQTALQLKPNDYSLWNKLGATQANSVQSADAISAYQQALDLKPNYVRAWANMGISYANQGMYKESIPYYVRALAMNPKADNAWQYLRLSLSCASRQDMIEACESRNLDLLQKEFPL

T8: AtPEX5C D505H-D507T-N601A (Arabidopsis thaliana, UniProt Q9FMA3 340-728, D505H | D507T | N601A)
T8 construct: Made by site-directed mutagenesis of His6-AtPEX5 (340-728) in pET-28b; source: E. coli BL21-Gold (DE3), purified (Co-NTA)
T8 sequence (looked up): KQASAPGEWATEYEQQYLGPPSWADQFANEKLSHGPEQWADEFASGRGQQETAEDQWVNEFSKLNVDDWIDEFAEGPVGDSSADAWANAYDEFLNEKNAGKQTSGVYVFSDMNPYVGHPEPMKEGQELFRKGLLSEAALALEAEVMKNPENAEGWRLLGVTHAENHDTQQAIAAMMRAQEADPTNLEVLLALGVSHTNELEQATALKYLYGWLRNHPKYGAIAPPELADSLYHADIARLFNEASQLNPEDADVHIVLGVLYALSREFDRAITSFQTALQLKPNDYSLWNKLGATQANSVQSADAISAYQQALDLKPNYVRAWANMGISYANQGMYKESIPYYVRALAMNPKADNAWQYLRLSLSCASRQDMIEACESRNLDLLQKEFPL


Columns and labels:
lissamine-YQSYY = test: fluorescence polarisation; fluorescence anisotropy; AtPEX5C or variant serially diluted (from a 40 µM solution) against 100 nM lissamine-labelled peptide tracer; 20 mM HEPES, 150 mM NaCl, pH 7.5; gelatine-blocked 384-well plates; 25 °C, 20 min; fitted to a 1:1 binding model
[1] = target: endogenous PhypaPEX5 (Physcomitrella patens (endogenous in P. patens cells))
wild-type AtPEX5C = target: T1, wild-type AtPEX5C; test: Pull down of binding peptides (Co-NTA, LC-MS), wild-type AtPEX5C; conditions: […] protein, 500 nM each peptide, pH 8.0, 4 °C, 1 h, semi-quantitative
From the text: (§1) The chemical space that can be covered by all possible variants of the receptor and signal sequence is vast (e.g., combined randomization of the two C-terminal PTS1 residues and just six residues within AtPEX5C would result in a library size of 2.6 × 10^10 variants of peptide and protein), which makes the development of an assay for a PEX5*-PTS1* pair problematic. We reduced the dimensionality of this search by designing modifications to the PEX5 component and rapidly surveying which peptide sequences could be bound by each mutated receptor (Fig. 1a). Site-directed variants of a His6-tagged A. thaliana PEX5 PTS1-binding domain (residues 340–728, AtPEX5C)[16], selected by analysis of known crystal structures, were expressed in Escherichia coli. The purified proteins were incubated with a library of pentapeptides, representing known PTS1 and putative PTS1* sequences. After capture of the receptor-peptide complexes on cobalt affinity resin, the bound peptides were eluted and identified by liquid chromatography-mass spectrometry (LC-MS) analysis. […]
(§2) Each peptide sub-library was analyzed using the LC-MS method listed above and an identical chromatographic run in which the mass spectrometer provided automated MS/MS data, using collisional induced fragmentation in the quadrupole. […]

AtPEX5C D505H [2] = target: T2, AtPEX5C D505H; test: Pull down of binding peptides (Co-NTA, LC-MS), AtPEX5C D505H; conditions: […] protein, 500 nM each peptide, pH 8.0, 4 °C, 1 h, semi-quantitative
From the text: as §1, §2

AtPEX5C N601A [3] = target: T3, AtPEX5C N601A; test: Pull down of binding peptides (Co-NTA, LC-MS), AtPEX5C N601A; conditions: […] protein, 500 nM each peptide, pH 8.0, 4 °C, 1 h, semi-quantitative
From the text: as §1, §2

[4] = target: T4, His6-tagged A. thaliana PEX5 …; test: fluorescence polarisation; fluorescence anisotropy; AtPEX5C or variant serially diluted (from a 40 µM solution) against 100 nM lissamine-labelled peptide tracer; 20 mM HEPES, 150 mM NaCl, pH 7.5; gelatine-blocked 384-well plates; 25 °C, 20 min; fitted to a 1:1 binding model; conditions: both partners purified
AtPEX5C D505H [5] = target: T5, AtPEX5C D505H; test: as above; conditions: both partners purified
AtPEX5C N601A [6] = target: T6, AtPEX5C N601A; test: as above; conditions: both partners purified
AtPEX5C D505H-N601A = target: T7, AtPEX5C D505H-N601A; test: as above; conditions: both partners purified
[7] = target: T8, AtPEX5C D505H-D507T-N601A; test: as above; conditions: both partners purified

Row | Molecule | pulled down from library (wild-type AtPEX5C) | pulled down from library (AtPEX5C D505H [2]) | pulled down from library (AtPEX5C N601A [3]) | Kd (AtPEX5C D505H [5]) [nM] | Kd (AtPEX5C N601A [6]) [nM] | Kd (AtPEX5C D505H-N601A) [nM] | Kd [7] [nM] | also measured
1 | His6-tagged A. thaliana PEX5 PTS1-binding domain (residues 340-728), wild type (from UniProt Q9FMA3 340-728) (domain or fragment) | – | – | – | – | – | – | – | Kd (lissamine-YQSYY): 2700 nM
2 | RFP-PTS1 | – | – | – | – | – | – | – | peroxisomal import: localisation score (1-5) of RFP-PTS1 in P. patens cells expressing PEX5* without GFP-PTS1* (score (scale 1-5)) [1]: 4.32
3 | dansyl-YQSFY [member of dansyl-YQSXX pentapeptide library] | not pulled down | bound | bound | – | – | – | – | –
4 | dansyl-YQSYY [member of dansyl-YQSXX pentapeptide library] | not pulled down | bound | bound | – | – | – | – | –
5 | {lissamine rhodamine B sulfonyl}-YQSKL (model PTS1 pentapeptide; also called lissamine-labelled YQSKL; model PTS1 peptide; source: synthetic peptide (Fmoc solid-phase synthesis, reverse phase HPLC)) [lissamine-YQSKL] | – | – | – | 30 | 22 | 108 | 97 | Kd [4]: 1.1 nM
6 | {lissamine rhodamine B sulfonyl}-YQSYY (pentapeptide found in the YQSXX library screen; also called lissamine-labelled YQSYY; source: synthetic peptide (Fmoc solid-phase synthesis, reverse phase HPLC)) [lissamine-YQSYY] | – | – | – | 960 | 2300 | 603 | 110 | –
